The Human Domainome abundance scans (Beltran et al. 2025)
± gives the uncertainty stated by the source.

B1: Retinoic acid receptor RXR-alpha, residues 132 to 208; numbered along this chain, P19793 (parent)
chain: KHICAICGDRSSGKHYGVYSCEGCKGFFKRTVRKDLTYTCRDNKDCLIDKRQRNRCQYCRYQKCLAMGMKREAVQEE

Variants of: B1
Experiment: abundance fitness (aPCA) (normalised: wild type 0, dead -1); higher = more abundant; growth selection in yeast, the domain comes from the species named
Conditions: Homo sapiens

Variant	abundance fitness
K29W	0.003 ± 0.036
K29G	0.025 ± 0.028
K29C	-0.223 ± 0.059
K29F	-0.035 ± 0.065
K29P	-0.531 ± 0.08
V74W	-0.074 ± 0.058
V74E	-0.018 ± 0.055
V74M	-0.025 ± 0.036
H15R	-0.039 ± 0.023
R71V	0.021 ± 0.028
R71C	-0.001 ± 0.04
R71W	-0.056 ± 0.036
R71K	0.043 ± 0.034
R71H	-0.007 ± 0.033
R71S	0.003 ± 0.024
C40H	-0.09 ± 0.077
C40P	-0.591 ± 0.082
C40I	-0.697 ± 0.15
C40K	-0.504 ± 0.078
Q75Y	-0.092 ± 0.036
Q75A	-0.049 ± 0.033
Q75K	-0.047 ± 0.05
Q75I	-0.014 ± 0.033
Q75F	-0.039 ± 0.034

Variant	abundance fitness
Q75T	-0.011 ± 0.028
N43C	-0.115 ± 0.059
N43L	-0.009 ± 0.036
N43A	0.008 ± 0.039
N43E	0.053 ± 0.04
N43Q	-0.099 ± 0.052
N43Y	-0.043 ± 0.061
V32N	0.015 ± 0.036
V32H	-0.064 ± 0.032
V32S	-0.085 ± 0.026
V32R	-0.171 ± 0.026
V32T	0.024 ± 0.029
V32G	-0.046 ± 0.024
V32F	0 ± 0.034
E77W	0.04 ± 0.061
E77T	0.106 ± 0.041
E77K	0.008 ± 0.077
E77D	-0.002 ± 0.05
E77M	-0.034 ± 0.057
C59M	-1.08 ± 0.19
C59N	-1.13 ± 0.46
C59Y	-0.418 ± 0.11
C59F	-1.05 ± 0.21
D9N	-0.05 ± 0.033

Variant	abundance fitness
D9R	-0.243 ± 0.032
D9I	-0.455 ± 0.04
D9V	-0.424 ± 0.044
D9F	-0.321 ± 0.036
D9H	-0.214 ± 0.034
R41M	0.018 ± 0.039
R41G	0.095 ± 0.04
R41H	0.06 ± 0.033
R41Y	-0.002 ± 0.032
R41N	-0.05 ± 0.032
R41C	0.096 ± 0.035
H2V	-0.142 ± 0.042
H2P	-0.453 ± 0.063
H2M	0.078 ± 0.054
H2Y	-0.008 ± 0.067
H2L	-0.041 ± 0.037
K1A	-0.531 ± 0.094
K1R	-0.286 ± 0.055
K1Y	-0.119 ± 0.045
S20I	0.019 ± 0.037
S20N	0.031 ± 0.032
S20V	0.035 ± 0.024
S20P	-0.09 ± 0.03
S20E	-0.202 ± 0.031

Variant	abundance fitness
D42G	0.091 ± 0.34
F28D	-0.57 ± 0.088
F28M	0.024 ± 0.064
F28K	-1.13 ± 0.2
F28N	-0.653 ± 0.16
T39D	0.045 ± 0.062
T39C	0.04 ± 0.051
T39M	0.046 ± 0.041
T39Y	0.006 ± 0.093
T39R	0.008 ± 0.03
T39N	0.03 ± 0.07
T39E	0.048 ± 0.037
R33A	0.038 ± 0.035
R33W	-0.002 ± 0.043
R33S	-0.074 ± 0.028
E72R	-0.017 ± 0.084
E72P	-0.12 ± 0.089
E72T	-0.026 ± 0.071
E72H	-0.109 ± 0.093
R53A	-0.008 ± 0.033
R53H	0.015 ± 0.036
R53P	0.027 ± 0.037
R53M	-0.065 ± 0.044
R53F	-0.044 ± 0.034

Variant	abundance fitness
R53L	-0.041 ± 0.029
R53Y	0.007 ± 0.036
L47G	0.016 ± 0.027
L47H	-0.016 ± 0.079
L47V	-0.008 ± 0.033
L47F	0.011 ± 0.061
L47I	-0.002 ± 0.065
L47S	-0.122 ± 0.038
L36T	-0.028 ± 0.049
L36M	-0.061 ± 0.043
L36Q	0.005 ± 0.051
L36F	0.046 ± 0.057
L36K	-0.018 ± 0.052
L36E	0.021 ± 0.039
Q57G	0.03 ± 0.03
Q57T	-0.065 ± 0.044
Q57L	-0.016 ± 0.036
Q57E	-0.045 ± 0.042
Q57I	-0.167 ± 0.072
G26E	-0.043 ± 0.048
G26W	-0.052 ± 0.04
G26M	-0.071 ± 0.035
G26I	-0.116 ± 0.05
G26D	0.024 ± 0.04

Variant	abundance fitness
G26Y	-0.081 ± 0.042
G26H	-0.021 ± 0.044
G17M	0.025 ± 0.044
G17D	0.031 ± 0.063
G17Y	-0.1 ± 0.13
G17Q	-0.089 ± 0.041
G17L	-0.107 ± 0.035
G17R	-0.095 ± 0.027
T37M	-0.147 ± 0.049
T37S	-0.025 ± 0.035
T37W	-0.051 ± 0.041
T37N	0.001 ± 0.058
T37E	0.052 ± 0.035
T37V	0.035 ± 0.033
M69I	-0.275 ± 0.038
M69H	-0.548 ± 0.047
M69Q	-0.157 ± 0.049
M69V	-0.319 ± 0.038
D45W	-0.025 ± 0.035
D45R	0.001 ± 0.03
D45C	-0.049 ± 0.055
D45L	-0.062 ± 0.064
A73W	-0.007 ± 0.048
A73I	0.05 ± 0.031

Variant	abundance fitness
A73C	0.04 ± 0.038
A73M	0.044 ± 0.037
A73E	-0.011 ± 0.051
A73G	-0.008 ± 0.04
A73R	-0.037 ± 0.031
G23Q	-0.157 ± 0.033
G23P	-0.126 ± 0.03
G23D	0.049 ± 0.035
G23C	-0.258 ± 0.034
G23M	-0.305 ± 0.034
C24H	-0.971 ± 0.095
C24F	-0.889 ± 0.074
C24N	-1.18 ± 0.11
C24M	-1.18 ± 0.11
C24V	-0.917 ± 0.053
C4W	-1.3 ± 0.19
C4T	-0.757 ± 0.063
C4N	-0.936 ± 0.12
C4Y	-0.875 ± 0.099
C21I	-1.12 ± 0.11
C21F	-0.962 ± 0.077
C21H	-0.933 ± 0.079
C21W	-1.03 ± 0.085
V18C	-0.078 ± 0.039

Variant	abundance fitness
V18H	-0.356 ± 0.044
V18S	-0.328 ± 0.034
V18T	-0.357 ± 0.099
V18R	-0.227 ± 0.037
V18N	-0.574 ± 0.12
D35N	-0.164 ± 0.12
C46A	-0.142 ± 0.04
C46N	-0.22 ± 0.077
C46S	-0.274 ± 0.04
C46M	-0.206 ± 0.046
C46Q	-0.288 ± 0.067
C46E	-0.189 ± 0.046
C46F	-0.291 ± 0.087
C46D	-0.035 ± 0.069
C46G	-0.186 ± 0.029
S11M	-0.111 ± 0.032
S11Q	-0.101 ± 0.032
S11Y	-0.096 ± 0.027
S11R	-0.162 ± 0.025
S11A	-0.054 ± 0.029
R10K	-0.025 ± 0.033
R10I	-0.021 ± 0.031
R10C	-0.053 ± 0.035
K50C	-0.153 ± 0.066

Variant	abundance fitness
K50W	-0.107 ± 0.047
K50A	0.037 ± 0.042
K50G	0.015 ± 0.031
K50N	0.124 ± 0.074
K50S	-0.108 ± 0.05
K50H	-0.029 ± 0.072
K50V	0.052 ± 0.04
S12T	0.114 ± 0.047
S12G	0.072 ± 0.032
S12N	0.091 ± 0.084
S12D	0.001 ± 0.053
S12C	-0.657 ± 0.1
S12E	0.101 ± 0.049
I3N	-0.001 ± 0.033
I3S	-0.127 ± 0.029
I3A	-0.229 ± 0.033
R30D	-0.008 ± 0.064
R30S	-0.158 ± 0.037
R30H	-0.252 ± 0.098
R30A	-0.162 ± 0.041
R30M	-0.141 ± 0.048
R30V	-0.353 ± 0.038
R30W	-0.167 ± 0.042
K70P	0.021 ± 0.05

Variant	abundance fitness
K70V	0.04 ± 0.034
K70R	-0.012 ± 0.029
K70S	0.002 ± 0.035
K70Y	0.037 ± 0.061
K70H	0.037 ± 0.072
K70Q	-0.01 ± 0.042
K70D	0.006 ± 0.052
K44E	-0.033 ± 0.04
K44S	-0.011 ± 0.035
K44H	-0.086 ± 0.078
K44C	-0.025 ± 0.052
K44L	-0.083 ± 0.035
K14L	-0.094 ± 0.034
K14P	-0.004 ± 0.043
K14Y	-0.218 ± 0.1
G13I	-0.367 ± 0.11
G13Y	0.017 ± 0.079
G13Q	-0.009 ± 0.054
G13R	-0.024 ± 0.031
G13W	-0.659 ± 0.073
G13K	0.084 ± 0.056
I48E	-0.162 ± 0.083
I48Q	0.21 ± 0.097
I48F	-0.108 ± 0.09

Variant	abundance fitness
I48H	0.061 ± 0.19
Y19M	-0.015 ± 0.036
Y19P	0.006 ± 0.037
Y19H	-0.068 ± 0.041
Y19G	-0.207 ± 0.037
R51M	-0.025 ± 0.051
R51S	0.017 ± 0.049
R51H	-0.052 ± 0.08
R51A	0.007 ± 0.039
R51N	-0.071 ± 0.091
E22M	-0.136 ± 0.05
E22K	0.015 ± 0.045
E22S	-0.063 ± 0.035
E22A	-0.048 ± 0.033
E22W	-0.007 ± 0.035
L65F	-0.036 ± 0.056
L65I	-0.132 ± 0.077
L65N	0.11 ± 0.092
Y16C	-0.013 ± 0.035
Y16T	-0.04 ± 0.026
Y16E	0.078 ± 0.03
Y16W	-0.015 ± 0.032
Y16P	-0.082 ± 0.03
Y16G	0.015 ± 0.025

Variant	abundance fitness
Y16K	-0.092 ± 0.031
I6D	-0.729 ± 0.097
I6Q	-0.909 ± 0.11
Y38V	0.001 ± 0.031
Y38H	0.027 ± 0.071
Y38E	-0.063 ± 0.04
Y38L	0.012 ± 0.036
Y38I	-0.041 ± 0.067
Y38Q	-0.041 ± 0.045
Y58H	0.09 ± 0.073
Y58P	-0.294 ± 0.065
Y58M	-0.062 ± 0.045
Y58S	0 ± 0.037
Y58V	-0.311 ± 0.037
Y58N	-0.087 ± 0.08
Y58T	-0.328 ± 0.064
D49C	-0.117 ± 0.075
D49I	0.069 ± 0.1
D49F	-0.109 ± 0.24
D49E	-0.005 ± 0.058
D49R	-0.183 ± 0.04
N54S	-0.167 ± 0.2
N54Y	-0.061 ± 0.44
T31N	-0.114 ± 0.034

Variant	abundance fitness
T31P	-0.641 ± 0.059
T31K	-0.233 ± 0.044
T31H	-0.132 ± 0.037
G68Y	-0.227 ± 0.04
G68C	-0.136 ± 0.041
G68L	-0.362 ± 0.032
G68F	-0.091 ± 0.031
G68T	-0.357 ± 0.036
G68V	-0.645 ± 0.057
G68W	-0.302 ± 0.056
G68N	-0.02 ± 0.033
C7M	-0.867 ± 0.14
C7I	-1.24 ± 0.16
C7T	-0.981 ± 0.083
C7F	-1.19 ± 0.14
C7N	-0.728 ± 0.07
C7W	-1.22 ± 0.23
G8D	-0.04 ± 0.039
G8Q	0.043 ± 0.045
G8R	-0.125 ± 0.033
G8Y	-0.044 ± 0.043
G8W	-0.1 ± 0.06
A5R	0.044 ± 0.032
A5M	0.036 ± 0.048

Variant	abundance fitness
A5Q	0.036 ± 0.046
A5S	0.02 ± 0.036
A66N	-0.005 ± 0.036
A66T	0.002 ± 0.034
A66P	-0.713 ± 0.064
A66C	-0.099 ± 0.036
A66G	0.017 ± 0.036
A66W	-0.063 ± 0.046
A66D	0.031 ± 0.035
A66H	0.045 ± 0.034
A66R	-0.019 ± 0.03
E76Q	0.001 ± 0.044
E76K	-0.099 ± 0.06
E76G	0.05 ± 0.038
E76F	0.003 ± 0.035
E76T	-0.049 ± 0.032
E76L	0.01 ± 0.028
M67V	-0.009 ± 0.026
M67L	0.018 ± 0.025
M67R	0 ± 0.026
M67S	0.019 ± 0.025
M67I	0.007 ± 0.031
